Results: article doi:10.1101/2023.09.08.556907

Tests used:
[1] = biological target: Halo-FtsZ (FtsZ fused with HaloTag) (Caulobacter crescentus); assay: single molecule tracking in live cells
[2] = biological target: Halo-FtsZ^D216A (Caulobacter crescentus); assay: single molecule tracking in live cells

| monomer lifetime [1] [s] | monomer lifetime [2] [s] | Substance |
| --- | --- | --- |
| 12.2 |  | Halo-FtsZ (FtsZ fused with HaloTag) (natural protein) |
|  | 16.2 | Halo-FtsZ^D216A (natural protein) |
